The results in this text go back to paper PMC12487280.

Series [1] is described as follows: Western blot of UBAP2L, ccRCC cells. The note with it: control: shCtrl / untreated. For orientation: In western blotting, separated proteins are transferred to a membrane and probed.
A short description of series [2]: CHX-chase, Western blot, ccRCC cells. The following applies: glycan lost; control: WT / shCtrl / untreated.
Series [3] is described as follows: Flag IP, HA-Ub blot, MG132. The note with it: control: shCtrl.
Series [4] in a line: qPCR, 786-O and Caki-1. The note with it: glycan lost; control: UBAP2L-WT overexpression.

B1: UBAP2L: OGT knockdown (protein)
parent chain: MMTSVGTNRARGNWEQPQNQNQTQHKQRPQATAEQIRLAQMISDHNDADFEEKVKQLIDITGKNQDECVIALHDCNGDVNRAINVLLEGNPDTHSWEMVGKKKGVSGQKDGGQTESNEEGKENRDRDRDYSRRRGGPPRRGRGASRGREFRGQENGLDGTKSGGPSGRGTERGRRGRGRGRGGSGRRGGRFSAQGMGTFNPADYAEPANTDDNYGNSSGNTWNNTGHFEPDDGTSAWRTATEEWGTEDWNEDLSETKIFTASNVSSVPLPAENVTITAGQRIDLAVLLGKTPSTMENDSSNLDPSQAPSLAQPLVFSNSKQTAISQPASGNTFSHHSMVSMLGKGFGDVGEAKGGSTTGSQFLEQFKTAQALAQLAAQHSQSGSTTTSSWDMGSTTQSPSLVQYDLKNPSDSAVHSPFTKRQAFTPSSTMMEVFLQEKSPAVATSTAAPPPPSSPLPSKSTSAPQMSPGSSDNQSSSPQPAQQKLKQQKKKASLTSKIPALAVEMPGSADISGLNLQFGALQFGSEPVLSDYESTPTTSASSSQAPSSLYTSTASESSSTISSNQSQESGYQSGPIQSTTYTSQNNAQGPLYEQRSTQTRRYPSSISSSPQKDLTQAKNGFSSVQATQLQTTQSVEGATGSAVKSDSPSTSSIPPLNETVSAASLLTTTNQHSSSLGGLSHSEEIPNTTTTQHSSTLSTQQNTLSSSTSSGRTSTSTLLHTSVESEANLHSSSSTFSTTSSTVSAPPPVVSVSSSLNSGSSLGLSLGSNSTVTASTRSSVATTSGKAPPNLPPGVPPLLPNPYIMAPGLLHAYPPQVYGYDDLQMLQTRFPLDYYSIPFPTPTTPLTGRDGSLASNPYSGDLTKFGRGDASSPAPATTLAQPQQNQTQTHHTTQQTFLNPALPPGYSYTSLPYYTGVPGLPSTFQYGPAVFPVAPTSSKQHGVNVSVNASATPFQQPSGYGSHGYNTGVSVTSSNTGVPDISGSVYSKTQQSFEKQGFHSGTPAASFNLPSALGSGGPINPATAAAYPPAPFMHILTPHQQPHSQILHHHLQQDGQTGSGQRSQTSSIPQKPQTNKSAYNSYSWGAN
In the case of B1, in series [1] (glycan lost), the expression_or_secretion entry is “decreases”. Moreover, in series [2], the degradation_or_half_life result is given as “decreases”.

B2: UBAP2L: shOGA (protein)
parent chain: MMTSVGTNRARGNWEQPQNQNQTQHKQRPQATAEQIRLAQMISDHNDADFEEKVKQLIDITGKNQDECVIALHDCNGDVNRAINVLLEGNPDTHSWEMVGKKKGVSGQKDGGQTESNEEGKENRDRDRDYSRRRGGPPRRGRGASRGREFRGQENGLDGTKSGGPSGRGTERGRRGRGRGRGGSGRRGGRFSAQGMGTFNPADYAEPANTDDNYGNSSGNTWNNTGHFEPDDGTSAWRTATEEWGTEDWNEDLSETKIFTASNVSSVPLPAENVTITAGQRIDLAVLLGKTPSTMENDSSNLDPSQAPSLAQPLVFSNSKQTAISQPASGNTFSHHSMVSMLGKGFGDVGEAKGGSTTGSQFLEQFKTAQALAQLAAQHSQSGSTTTSSWDMGSTTQSPSLVQYDLKNPSDSAVHSPFTKRQAFTPSSTMMEVFLQEKSPAVATSTAAPPPPSSPLPSKSTSAPQMSPGSSDNQSSSPQPAQQKLKQQKKKASLTSKIPALAVEMPGSADISGLNLQFGALQFGSEPVLSDYESTPTTSASSSQAPSSLYTSTASESSSTISSNQSQESGYQSGPIQSTTYTSQNNAQGPLYEQRSTQTRRYPSSISSSPQKDLTQAKNGFSSVQATQLQTTQSVEGATGSAVKSDSPSTSSIPPLNETVSAASLLTTTNQHSSSLGGLSHSEEIPNTTTTQHSSTLSTQQNTLSSSTSSGRTSTSTLLHTSVESEANLHSSSSTFSTTSSTVSAPPPVVSVSSSLNSGSSLGLSLGSNSTVTASTRSSVATTSGKAPPNLPPGVPPLLPNPYIMAPGLLHAYPPQVYGYDDLQMLQTRFPLDYYSIPFPTPTTPLTGRDGSLASNPYSGDLTKFGRGDASSPAPATTLAQPQQNQTQTHHTTQQTFLNPALPPGYSYTSLPYYTGVPGLPSTFQYGPAVFPVAPTSSKQHGVNVSVNASATPFQQPSGYGSHGYNTGVSVTSSNTGVPDISGSVYSKTQQSFEKQGFHSGTPAASFNLPSALGSGGPINPATAAAYPPAPFMHILTPHQQPHSQILHHHLQQDGQTGSGQRSQTSSIPQKPQTNKSAYNSYSWGAN
For the protein B2, the “other: ubiquitination” value in series [3] (glycan gained) is on record as “decreases”.

B3: UBAP2L: shOGT (protein)
parent chain: MMTSVGTNRARGNWEQPQNQNQTQHKQRPQATAEQIRLAQMISDHNDADFEEKVKQLIDITGKNQDECVIALHDCNGDVNRAINVLLEGNPDTHSWEMVGKKKGVSGQKDGGQTESNEEGKENRDRDRDYSRRRGGPPRRGRGASRGREFRGQENGLDGTKSGGPSGRGTERGRRGRGRGRGGSGRRGGRFSAQGMGTFNPADYAEPANTDDNYGNSSGNTWNNTGHFEPDDGTSAWRTATEEWGTEDWNEDLSETKIFTASNVSSVPLPAENVTITAGQRIDLAVLLGKTPSTMENDSSNLDPSQAPSLAQPLVFSNSKQTAISQPASGNTFSHHSMVSMLGKGFGDVGEAKGGSTTGSQFLEQFKTAQALAQLAAQHSQSGSTTTSSWDMGSTTQSPSLVQYDLKNPSDSAVHSPFTKRQAFTPSSTMMEVFLQEKSPAVATSTAAPPPPSSPLPSKSTSAPQMSPGSSDNQSSSPQPAQQKLKQQKKKASLTSKIPALAVEMPGSADISGLNLQFGALQFGSEPVLSDYESTPTTSASSSQAPSSLYTSTASESSSTISSNQSQESGYQSGPIQSTTYTSQNNAQGPLYEQRSTQTRRYPSSISSSPQKDLTQAKNGFSSVQATQLQTTQSVEGATGSAVKSDSPSTSSIPPLNETVSAASLLTTTNQHSSSLGGLSHSEEIPNTTTTQHSSTLSTQQNTLSSSTSSGRTSTSTLLHTSVESEANLHSSSSTFSTTSSTVSAPPPVVSVSSSLNSGSSLGLSLGSNSTVTASTRSSVATTSGKAPPNLPPGVPPLLPNPYIMAPGLLHAYPPQVYGYDDLQMLQTRFPLDYYSIPFPTPTTPLTGRDGSLASNPYSGDLTKFGRGDASSPAPATTLAQPQQNQTQTHHTTQQTFLNPALPPGYSYTSLPYYTGVPGLPSTFQYGPAVFPVAPTSSKQHGVNVSVNASATPFQQPSGYGSHGYNTGVSVTSSNTGVPDISGSVYSKTQQSFEKQGFHSGTPAASFNLPSALGSGGPINPATAAAYPPAPFMHILTPHQQPHSQILHHHLQQDGQTGSGQRSQTSSIPQKPQTNKSAYNSYSWGAN
Consider B3, for which the “other: ubiquitination” value in series [3] (glycan lost) is reported as “increases”.

B4: UBAP2L: OGA knockdown (protein)
parent chain: MMTSVGTNRARGNWEQPQNQNQTQHKQRPQATAEQIRLAQMISDHNDADFEEKVKQLIDITGKNQDECVIALHDCNGDVNRAINVLLEGNPDTHSWEMVGKKKGVSGQKDGGQTESNEEGKENRDRDRDYSRRRGGPPRRGRGASRGREFRGQENGLDGTKSGGPSGRGTERGRRGRGRGRGGSGRRGGRFSAQGMGTFNPADYAEPANTDDNYGNSSGNTWNNTGHFEPDDGTSAWRTATEEWGTEDWNEDLSETKIFTASNVSSVPLPAENVTITAGQRIDLAVLLGKTPSTMENDSSNLDPSQAPSLAQPLVFSNSKQTAISQPASGNTFSHHSMVSMLGKGFGDVGEAKGGSTTGSQFLEQFKTAQALAQLAAQHSQSGSTTTSSWDMGSTTQSPSLVQYDLKNPSDSAVHSPFTKRQAFTPSSTMMEVFLQEKSPAVATSTAAPPPPSSPLPSKSTSAPQMSPGSSDNQSSSPQPAQQKLKQQKKKASLTSKIPALAVEMPGSADISGLNLQFGALQFGSEPVLSDYESTPTTSASSSQAPSSLYTSTASESSSTISSNQSQESGYQSGPIQSTTYTSQNNAQGPLYEQRSTQTRRYPSSISSSPQKDLTQAKNGFSSVQATQLQTTQSVEGATGSAVKSDSPSTSSIPPLNETVSAASLLTTTNQHSSSLGGLSHSEEIPNTTTTQHSSTLSTQQNTLSSSTSSGRTSTSTLLHTSVESEANLHSSSSTFSTTSSTVSAPPPVVSVSSSLNSGSSLGLSLGSNSTVTASTRSSVATTSGKAPPNLPPGVPPLLPNPYIMAPGLLHAYPPQVYGYDDLQMLQTRFPLDYYSIPFPTPTTPLTGRDGSLASNPYSGDLTKFGRGDASSPAPATTLAQPQQNQTQTHHTTQQTFLNPALPPGYSYTSLPYYTGVPGLPSTFQYGPAVFPVAPTSSKQHGVNVSVNASATPFQQPSGYGSHGYNTGVSVTSSNTGVPDISGSVYSKTQQSFEKQGFHSGTPAASFNLPSALGSGGPINPATAAAYPPAPFMHILTPHQQPHSQILHHHLQQDGQTGSGQRSQTSSIPQKPQTNKSAYNSYSWGAN
Turning to B4, the expression_or_secretion entry in series [1] (glycan gained) is “increases”.

B5: UBAP2L: UBAP2L-MUT (S305A) (protein)
parent chain: MMTSVGTNRARGNWEQPQNQNQTQHKQRPQATAEQIRLAQMISDHNDADFEEKVKQLIDITGKNQDECVIALHDCNGDVNRAINVLLEGNPDTHSWEMVGKKKGVSGQKDGGQTESNEEGKENRDRDRDYSRRRGGPPRRGRGASRGREFRGQENGLDGTKSGGPSGRGTERGRRGRGRGRGGSGRRGGRFSAQGMGTFNPADYAEPANTDDNYGNSSGNTWNNTGHFEPDDGTSAWRTATEEWGTEDWNEDLSETKIFTASNVSSVPLPAENVTITAGQRIDLAVLLGKTPSTMENDSSNLDPSQAPSLAQPLVFSNSKQTAISQPASGNTFSHHSMVSMLGKGFGDVGEAKGGSTTGSQFLEQFKTAQALAQLAAQHSQSGSTTTSSWDMGSTTQSPSLVQYDLKNPSDSAVHSPFTKRQAFTPSSTMMEVFLQEKSPAVATSTAAPPPPSSPLPSKSTSAPQMSPGSSDNQSSSPQPAQQKLKQQKKKASLTSKIPALAVEMPGSADISGLNLQFGALQFGSEPVLSDYESTPTTSASSSQAPSSLYTSTASESSSTISSNQSQESGYQSGPIQSTTYTSQNNAQGPLYEQRSTQTRRYPSSISSSPQKDLTQAKNGFSSVQATQLQTTQSVEGATGSAVKSDSPSTSSIPPLNETVSAASLLTTTNQHSSSLGGLSHSEEIPNTTTTQHSSTLSTQQNTLSSSTSSGRTSTSTLLHTSVESEANLHSSSSTFSTTSSTVSAPPPVVSVSSSLNSGSSLGLSLGSNSTVTASTRSSVATTSGKAPPNLPPGVPPLLPNPYIMAPGLLHAYPPQVYGYDDLQMLQTRFPLDYYSIPFPTPTTPLTGRDGSLASNPYSGDLTKFGRGDASSPAPATTLAQPQQNQTQTHHTTQQTFLNPALPPGYSYTSLPYYTGVPGLPSTFQYGPAVFPVAPTSSKQHGVNVSVNASATPFQQPSGYGSHGYNTGVSVTSSNTGVPDISGSVYSKTQQSFEKQGFHSGTPAASFNLPSALGSGGPINPATAAAYPPAPFMHILTPHQQPHSQILHHHLQQDGQTGSGQRSQTSSIPQKPQTNKSAYNSYSWGAN
As for B5, the “other: Melk mRNA level” value in series [4] was “decreases”.
